Columns and labels:
Assay in all cases: pull-down binding Z-score (relative to library population); higher = stronger binding
[1] = system: TO-N3-2 (biotin conjugate); details: RNA library: Library-2
Method in brief: (§1)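 Binding is given as a Z-score against the library mean and standard deviation, calculated after removing the beads-only signal and averaging barcoded replicate probes without their highest and lowest values. Cy5- or Cy3-end-labelled RNA library (1 μg) was heat-folded in phosphate/NaCl/KCl buffer and incubated 60 min at 25 °C with streptavidin beads bearing 100 pmol of biotin-conjugated small molecule. After three washes, RNA eluted in hot SDS was hybridised to a DNA barcode microarray for 20 h at 55.5 °C.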

[2] = system: G-clamp-N3 (biotin conjugate); details: RNA library: Library-1 (pre-miRNA loops + repeats)
Method in brief: as §1

[3] = system: TO-3-N3 (biotin conjugate); details: RNA library: Library-2
Method in brief: as §1

[4] = system: TO-3-N3-2 (biotin conjugate); details: RNA library: Library-2
Method in brief: as §1

TO-N3 (biotin conjugate) = details: RNA library: Library-2
Method in brief: as §1

| Sequence | pull-down binding Z-score [1] | pull-down binding Z-score [2] | pull-down binding Z-score [3] | pull-down binding Z-score [4] | pull-down binding Z-score (TO-N3 (biotin conjugate)) |
| --- | --- | --- | --- | --- | --- |
| UUGGCACAGGGAAGCGAGUCUGCCAA [hsa-mir-195] | 1.23 | 2.53 | 0.0632 | 0.354 | 0.504 |
| CGGACGUUGCUCUCUACCCCG [hsa-mir-1247] | 1.03 | -0.101 | 0.389 | 0.262 | 0.839 |
| GACAUCUGGGCCAACUCUGAUCUC [hsa-mir-6515] | 0.777 | -1.32 | -0.163 | -0.126 | 0.113 |
| UAAUAUGUAAUAUAAAUGUAUUG [hsa-mir-450a-2] | -0.926 | -0.938 | 0.202 | -0.134 | -0.167 |
| GAGAGUGCUUUCUGAAUGCAAUGC [hsa-mir-501] | 0.716 | 1.7 | -0.342 | -0.161 | -0.14 |
| CAGGUGUUCUUAAAAUCACCUG [hsa-mir-875] | -1.05 | -0.405 | -0.63 | -0.143 | -0.806 |
| AGCCAAAAUCACCAGGGA [hsa-mir-4534] | 0.563 | 0.0802 | -0.0499 | 0.118 | 0.259 |
| UGCCCUAGCGGCU [hsa-mir-4268] | -0.238 | -0.151 | -0.212 | -0.708 | -0.211 |
| UGGAGUUUUUUUUUCCUCCUG [hsa-mir-4329] | 0.0619 | -0.689 | 0.315 | 0.465 | 0.219 |
| CCUUUGUGAGCAGUGUGACCCAAGGCCUGUGGACAGGG [hsa-mir-555] | 1.15 | 0.911 | -0.0854 | -0.351 | 0.241 |
| UACAUAGUUCAUGCUGAGGCCGGGAUUUCAUGCAGAAAACUGGUUGCAAAAGGUGCUGAAG [hsa-mir-6085] | 1.13 | -0.725 | -0.189 | 0.378 | 0.573 |
| CCAAGUCUGACCACCUGAGGAAUGCCUGG [hsa-mir-1269a] | 0.719 | -0.858 | -0.498 | -0.335 | -0.288 |
| GCAGGUAGCUUUUUGAGAUCUACUGC [hsa-mir-106a] | -0.248 | 0.281 | -0.704 | -0.00277 | -0.711 |
| GCCUUUCAACAUAAUGGC [hsa-mir-548w] | -0.827 | 1.21 | -0.0045 | -0.214 | -0.352 |
| AGGAGAAGGUGAGACCAAUGUCCUGGGUGCCACUCCU [hsa-mir-6124] | -0.139 | 0.515 | -0.524 | -0.00463 | -0.503 |
| UUUUCCCUUUCUCUUGCCCUGAAA [hsa-mir-4509-1_4509-3_4509-2] | -0.219 | -1 | -0.261 | -0.096 | -0.332 |
| GAGAGUGCUGUCUGAAUGCAAUGC [hsa-mir-500a] | 0.766 | 1.08 | 0.797 | 0.291 | 0.89 |
| CACAAAUAUGGCUCUUUGUG [hsa-mir-4474] | -0.657 | -0.738 | -0.637 | -0.469 | -0.809 |
| UGGUGCAAUAAUUGG [hsa-mir-1302-7] | 0.245 | 1.95 | 0.418 | 0.492 | 0.4 |

From the supplement of paper PMC11865577
